Sequences and labels used below:
B1: KCNG1 (parent)
chain: LFVTVTAVNLSVSTLPSLREEEEQ
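Note: lentivirally expressed fusions sorted by FACS into six bins by GFP to DsRed ratio, PSI derived from sequencing read proportions per bin multiplied by bin number.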

Variants of B1 are the subject of the data set. The data set can be described thus: protein stability index of a GFP-peptide fusion (GPS, HEK-293T) (PSI 1-6); higher = more stable. The note with it: c terminus: a fixed tail appended.
LFVTVTAVNDSVSTLPSLREEEEQ: the protein stability index stood at 2.76.

Regarding LFVTVTAVNCSVSTLPSLREEEEQ, the protein stability index came out at 1.45.

As for LFGTVTAVNLSVSTLPSLREEEEQ, the protein stability index worked out at 3.53.

Regarding LFWTVTAVNLSVSTLPSLREEEEQ, the protein stability index was 1.91.

Turning to LFCTVTAVNLSVSTLPSLREEEEQ, the protein stability index turned out to be 2.65.

For the variant LFITVTAVNLSVSTLPSLREEEEQ, the protein stability index came to 2.67.

For the variant LFSTVTAVNLSVSTLPSLREEEEQ, the protein stability index was 4.05.

With LFQTVTAVNLSVSTLPSLREEEEQ, the protein stability index was 3.58.

Regarding LFTTVTAVNLSVSTLPSLREEEEQ, the protein stability index worked out at 4.52.

For LFETVTAVNLSVSTLPSLREEEEQ, the protein stability index stood at 4.93.

As for LFKTVTAVNLSVSTLPSLREEEEQ, the protein stability index turned out to be 3.71.

For LFHTVTAVNLSVSTLPSLREEEEQ, the protein stability index turned out to be 3.75.

As for LFMTVTAVNLSVSTLPSLREEEEQ, the protein stability index amounted to 1.75.

Consider LFLTVTAVNLSVSTLPSLREEEEQ, for which the protein stability index amounted to 1.53.

For LFNTVTAVNLSVSTLPSLREEEEQ, the protein stability index stood at 4.51.

Consider LFDTVTAVNLSVSTLPSLREEEEQ, for which the protein stability index was found to be 4.92.

On to LFFTVTAVNLSVSTLPSLREEEEQ, for which the protein stability index came to 1.65.

In the case of LFRTVTAVNLSVSTLPSLREEEEQ, the protein stability index worked out at 4.5.

Take LFPTVTAVNLSVSTLPSLREEEEQ: the protein stability index came out at 5.3.

For the variant LFYTVTAVNLSVSTLPSLREEEEQ, the protein stability index was found to be 1.92.

For LFVTVTAVQLSVSTLPSLREEEEQ, the protein stability index came out at 2.65.

Take LFVTVTAVDLSVSTLPSLREEEEQ: the protein stability index was 1.45.

For the variant LFVTVTAVHLSVSTLPSLREEEEQ, the protein stability index was 3.18.

On to LFVTVTAVTLSVSTLPSLREEEEQ, for which the protein stability index came to 3.74.

LFVTVTAVPLSVSTLPSLREEEEQ: the protein stability index turned out to be 1.73.

For the variant LFVTVTAVYLSVSTLPSLREEEEQ, the protein stability index was found to be 2.02.

In the case of LFVTVTAHNLSVSTLPSLREEEEQ, the protein stability index came to 2.95.

On to LFVTVTAANLSVSTLPSLREEEEQ, for which the protein stability index is 2.02.

As for LFVTVTAMNLSVSTLPSLREEEEQ, the protein stability index worked out at 1.23.

As for LFVTVTAQNLSVSTLPSLREEEEQ, the protein stability index is 1.85.

Regarding LFVTVTATNLSVSTLPSLREEEEQ, the protein stability index stood at 2.09.

In the case of LFVTVTAENLSVSTLPSLREEEEQ, the protein stability index was 3.16.

Regarding LFVTVTAPNLSVSTLPSLREEEEQ, the protein stability index came out at 2.29.

As for LFVTVTASNLSVSTLPSLREEEEQ, the protein stability index was found to be 2.77.

On to LFVTVTANNLSVSTLPSLREEEEQ, for which the protein stability index amounted to 2.49.

With LFVTVTADNLSVSTLPSLREEEEQ, the protein stability index turned out to be 2.29.

As for LFVTVTARNLSVSTLPSLREEEEQ, the protein stability index was 2.51.

With LFVTVTACNLSVSTLPSLREEEEQ, the protein stability index stood at 3.11.

As for LFVTVTAYNLSVSTLPSLREEEEQ, the protein stability index amounted to 2.15.

For LFVTVTAKNLSVSTLPSLREEEEQ, the protein stability index is 2.15.

For LFVTVTIVNLSVSTLPSLREEEEQ, the protein stability index was determined as 4.2.

With LFVTVTHVNLSVSTLPSLREEEEQ, the protein stability index amounted to 2.5.

In the case of LFVTVTGVNLSVSTLPSLREEEEQ, the protein stability index turned out to be 1.5.

LFVTVTQVNLSVSTLPSLREEEEQ: the protein stability index was found to be 2.58.

Consider LFVTVTMVNLSVSTLPSLREEEEQ, for which the protein stability index turned out to be 2.03.

In the case of LFVTVTDVNLSVSTLPSLREEEEQ, the protein stability index stood at 2.89.

On to LFVTVTEVNLSVSTLPSLREEEEQ, for which the protein stability index was 3.03.

For the variant LFVTVTPVNLSVSTLPSLREEEEQ, the protein stability index worked out at 1.8.

For LFVTVTYVNLSVSTLPSLREEEEQ, the protein stability index amounted to 3.4.

Take LFVTVTKVNLSVSTLPSLREEEEQ: the protein stability index turned out to be 3.01.

For the variant LFVTVTTVNLSVSTLPSLREEEEQ, the protein stability index was found to be 1.34.

Consider LFVTVTCVNLSVSTLPSLREEEEQ, for which the protein stability index was 2.9.

For the variant LFVTVSAVNLSVSTLPSLREEEEQ, the protein stability index was 2.27.

Consider LFVTVPAVNLSVSTLPSLREEEEQ, for which the protein stability index was determined as 3.96.

As to LFVTVNAVNLSVSTLPSLREEEEQ, the protein stability index was 2.29.

Take LFVTVAAVNLSVSTLPSLREEEEQ: the protein stability index was found to be 1.69.

For the variant LFVTVLAVNLSVSTLPSLREEEEQ, the protein stability index was 1.25.

As for LFVTVRAVNLSVSTLPSLREEEEQ, the protein stability index worked out at 1.64.

For LFVTVHAVNLSVSTLPSLREEEEQ, the protein stability index was determined as 1.85.

For the variant LFVTVDAVNLSVSTLPSLREEEEQ, the protein stability index is 3.21.

As to LFVTVEAVNLSVSTLPSLREEEEQ, the protein stability index was 1.79.

Consider LFVTVGAVNLSVSTLPSLREEEEQ, for which the protein stability index turned out to be 1.3.

With LFVEVTAVNLSVSTLPSLREEEEQ, the protein stability index worked out at 1.75.

Turning to LFVHVTAVNLSVSTLPSLREEEEQ, the protein stability index was determined as 1.93.

On to LFVGVTAVNLSVSTLPSLREEEEQ, for which the protein stability index is 2.89.

As to LFVPVTAVNLSVSTLPSLREEEEQ, the protein stability index amounted to 3.13.

With LFVKVTAVNLSVSTLPSLREEEEQ, the protein stability index was 1.64.

For the variant LFVNVTAVNLSVSTLPSLREEEEQ, the protein stability index came to 2.45.

For LFVYVTAVNLSVSTLPSLREEEEQ, the protein stability index was 3.61.

For the variant LFVSVTAVNLSVSTLPSLREEEEQ, the protein stability index was found to be 1.49.

For LFVDVTAVNLSVSTLPSLREEEEQ, the protein stability index amounted to 3.23.

As for LFVAVTAVNLSVSTLPSLREEEEQ, the protein stability index stood at 1.37.

Take LFVMVTAVNLSVSTLPSLREEEEQ: the protein stability index stood at 3.06.

Consider LFVQVTAVNLSVSTLPSLREEEEQ, for which the protein stability index amounted to 2.71.

With LFVLVTAVNLSVSTLPSLREEEEQ, the protein stability index came out at 1.08.

As to LFVTSTAVNLSVSTLPSLREEEEQ, the protein stability index stood at 3.5.

As to LFVTETAVNLSVSTLPSLREEEEQ, the protein stability index was determined as 4.46.

On to LFVTATAVNLSVSTLPSLREEEEQ, for which the protein stability index came to 2.42.

Regarding LFVTFTAVNLSVSTLPSLREEEEQ, the protein stability index worked out at 2.68.

Regarding LFVTNTAVNLSVSTLPSLREEEEQ, the protein stability index is 3.64.

Consider LFVTKTAVNLSVSTLPSLREEEEQ, for which the protein stability index is 3.75.

Take LFVTDTAVNLSVSTLPSLREEEEQ: the protein stability index was found to be 4.51.

With LFVTPTAVNLSVSTLPSLREEEEQ, the protein stability index came to 4.91.

In the case of LFVTQTAVNLSVSTLPSLREEEEQ, the protein stability index was 3.94.

For the variant LFVTITAVNLSVSTLPSLREEEEQ, the protein stability index stood at 3.56.

Consider LFVTLTAVNLSVSTLPSLREEEEQ, for which the protein stability index turned out to be 2.2.

On to LFVTHTAVNLSVSTLPSLREEEEQ, for which the protein stability index came to 3.52.

For the variant LFVTTTAVNLSVSTLPSLREEEEQ, the protein stability index is 3.16.

On to LFVTCTAVNLSVSTLPSLREEEEQ, for which the protein stability index was found to be 2.1.

On to LFVTWTAVNLSVSTLPSLREEEEQ, for which the protein stability index was 2.3.

As to LFVTRTAVNLSVSTLPSLREEEEQ, the protein stability index is 3.2.

Take LFVTMTAVNLSVSTLPSLREEEEQ: the protein stability index is 2.18.

On to LFVTGTAVNLSVSTLPSLREEEEQ, for which the protein stability index worked out at 3.99.

LFVTYTAVNLSVSTLPSLREEEEQ: the protein stability index was 2.14.
